For this experiment, the target named is T1, CDK7 kinase fused to a C-terminal Strep-tag II sequence (UniProt P50613 1-346).
T1 construct: No cleavage of the tag is described; The theoretical mass of the trimer (113,879 Da with one phosphorylation) would fit whole chains; source: Sf21 cells, baculovirus, purified as the CAK complex (Strep-Tactin XT, eluted with biotin)
The experiment in a line: cross-linking; purified CAK complex (co-expressed, co-purified) at 0.7 mg/mL in 20 mM Hepes pH 8, 150 mM KCl, 1 mM EDTA, 1 mM DTT, 50 mM biotin; DSSO at 200 molar excess, 45 min, RT; three replicates; 4-CV FAIMS-GPF nLC-MS/MS; XLs kept if in at least 2 of 3 replicates. To be noted: both partners purified.

The values below come from publication PMC13507205, “FAIMS-GPF XL-MS: crosslinking-mass spectrometry based on gas-phase fractionation” (Nature Communications, 2026).

T1 sequence (P50613 whole entry, the tested form may be a part): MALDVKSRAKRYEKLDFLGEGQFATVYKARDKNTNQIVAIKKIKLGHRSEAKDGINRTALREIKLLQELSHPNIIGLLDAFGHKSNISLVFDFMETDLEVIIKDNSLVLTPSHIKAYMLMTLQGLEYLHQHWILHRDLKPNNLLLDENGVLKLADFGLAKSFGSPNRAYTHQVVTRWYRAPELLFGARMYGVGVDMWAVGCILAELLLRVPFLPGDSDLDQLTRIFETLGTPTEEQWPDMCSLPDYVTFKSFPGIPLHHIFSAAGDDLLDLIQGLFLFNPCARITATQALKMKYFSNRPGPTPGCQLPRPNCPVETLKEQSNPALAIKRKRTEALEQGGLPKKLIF

B1: MAT1 (natural protein, UniProt P51948 1-309, looked up)
chain: MDDQGCPRCKTTKYRNPSLKLMVNVCGHTLCESCVDLLFVRGAGNCPECGTPLRKSNFRVQLFEDPTVDKEVEIRKKVLKIYNKREEDFPSLREYNDFLEEVEEIVFNLTNNVDLDNTKKKMEIYQKENKDVIQKNKLKLTREQEELEEALEVERQENEQRRLFIQKEEQLQQILKRKNKQAFLDELESSDLPVALLLAQHKDRSTQLEMQLEKPKPVKPVTFSTGIKMGQHISLAPIHKLEEALYEYQPLQIETYGPHVPELEMLGRLGYLNHVRAASPQDLAGGYTSSLACHRALQDAFSGLFWQPS
notes: MAT1, subunit of the CAK heterotrimer; source: Sf21 cells, baculovirus, purified as the CAK complex (Strep-Tactin XT, eluted with biotin)
As to B1, the binding result was “binds”.
